Common to all, as to test: SPR (Biacore), antibody captured on chip, FcgR extracellular domain as analyte
The target of one test is T1, FcgRIIa R (human, UniProt P12318 34-217).
T1 construct: extracellular domain; also called FcγRIIa R; FcγRIIa type R; not shown: His tag attached to the C terminus
T1 sequence (looked up): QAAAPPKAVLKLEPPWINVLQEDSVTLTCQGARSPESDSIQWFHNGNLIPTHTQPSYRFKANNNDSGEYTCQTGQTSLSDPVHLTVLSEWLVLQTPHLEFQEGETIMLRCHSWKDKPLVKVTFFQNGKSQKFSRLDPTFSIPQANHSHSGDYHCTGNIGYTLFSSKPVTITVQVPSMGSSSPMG
The protocol:
(§1) Analysis of interaction between obj ective antibody and the FcγR was carried out using Biacore T100 (GE Healthcare), Biacore T200, Biacore A100, and Biacore 4000. HBS-EP+ (GE Healthcare) was used as the running buffer, and the measurement temperature was set to 25° C. Chips produced by immobilizing the antigen peptide by the amine coupling method to a Series S sensor Chip CM5 (GE Healthcare), chips produced by allowing preliminarily biotinylated antigen peptides to interact with and immobilize onto a Series S Sensor Chip SA (certified) (GE Healthcare), chips produced by immobilizing Protein L (ACTIGEN, BioVision) to Series S Sencor Chip CM5 (GE Healthcare), or chips produced by immobilizing Protein A/G (Thermo Scientific) to Series S Sencor Chip CM5 (GE Healthcare) were used. Antibodies of interest were captured onto these chips, and allowed to interact to each FcγR diluted with running buffer. To regenerate and repeatedly use the chip, the antibodies captured onto the chip were washed off by reacting 10 mM glycine-HCl, pH 1.5.

The next test has as its target T2, FcgRIIa H (human, UniProt P12318 34-217).
T2 construct: extracellular domain; also called FcγRIIa H; FcγRIIa type H; not shown: His tag attached to the C terminus
T2 sequence (looked up): T1 sequence (looked up) with R134H
The protocol:
as §1

In the next test the target is T3, FcgRIIIa F (human, UniProt P08637 17-208).
T3 construct: extracellular domain; also called FcγRIIIa F; not shown: His tag attached to the C terminus
T3 sequence (P08637 17-208): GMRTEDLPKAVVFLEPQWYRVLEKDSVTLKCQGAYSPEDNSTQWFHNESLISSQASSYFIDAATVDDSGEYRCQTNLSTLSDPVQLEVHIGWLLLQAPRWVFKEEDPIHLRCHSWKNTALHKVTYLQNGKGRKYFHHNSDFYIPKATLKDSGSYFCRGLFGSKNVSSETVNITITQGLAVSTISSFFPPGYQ
The protocol: as §1

The next test deals with T4, FcgRIIIa V (human, UniProt P08637 17-208).
T4 construct: extracellular domain; also called FcγRIIIa V; not shown: His tag attached to the C terminus
T4 sequence (P08637 17-208 F176V limits assumed): as the sequence (P08637 17-208) above, with F160V counted along it
The protocol: as §1

Where a chain is given by its changes, count along the chain named. Numbers in names are those of the source.

B1: H240-Kn067/H240-Hl136/L73-k0 (antibody, human IgG1, kappa)
heavy 1: QDQLVQSGAEVKKPGASVKVSCKASGFNIKDTYIQWVRQAPGQGLEWMGRIDPLRKQTKYREKFEGRVTITADTSTNTAYMELSSLRSEDTAVYYCVRSGREFDYWGQGTLVTVSSASTKGPSVFPLAPSSKSTSGGTAALGCLVKDYFPEPVTVSWNSGALTSGVHTFPAVLQSSGLYSLSSVVTVPSSSLGTQTYICNVNHKPSNTKVDKKVEPKSCDKTHTCPPCPAPEYYWGPSVFLFPPKPKDTLMISRTPEVTCVVVDVSDEDPEVKFNWYVDGVEVHNAKTKPREEQYNATYRVVSVLTVLHQDWLNGKEYKCKVSNKDLPAPIEKTISKAKGQPREPQVCTLPPSRDELTKNQVSLWCLVKGFYPSDIAVEWESNGQPENNYKTTPPVLDSDGSFFLYSKLTVDKSRWQQGNVFSCSVMHEALHNHYTQKSLSLSP
heavy 2: B1 heavy 1 with C348Y, D355C, W365S, L367A, Y406V
light: DIQMTQSPSSLSASVGDRVTITCRASQDIHKYIAWYQQKPGQAPRLLIQYTSTLQPGVPSRFSGSGSGTDYTFTISSLQPEDIATYYCLQYEQLRTFGGGTKVEIKRTVAAPSVFIFPPSDEQLKSGTASVVCLLNNFYPREAKVQWKVDNALQSGNSQESVTEQDSKDSTYSLSSTLTLSKADYEKHKVYACEVTHQGLSSPVTKSFNRGEC
notes: Anti-EREG IgG1 called homodimerized: both H chains (knob and hole) carry L234Y/L235Y/G236W/H268D/S298A/A327D; also called H240-Kn067/H240-HI136/L73-k0
As to B1, the Kd – broadly, the free concentration of one partner at which half of the binding sites on the other are occupied at equilibrium, for simple one-to-one binding – with FcgRIIa R was 950 nM; with FcgRIIa H, 2100 nM; with FcgRIIIa F it was 960 nM; with FcgRIIIa V, 340 nM.

B2: H240-Kn133/H240-Hl068/L73-k0 (antibody, human IgG1, kappa)
heavy 1: B1 heavy 1 with Y233L, Y234L, W235G, D267H, D269E, A297S, K325D, D326A, A329K, K333E
heavy 2: QDQLVQSGAEVKKPGASVKVSCKASGFNIKDTYIQWVRQAPGQGLEWMGRIDPLRKQTKYREKFEGRVTITADTSTNTAYMELSSLRSEDTAVYYCVRSGREFDYWGQGTLVTVSSASTKGPSVFPLAPSSKSTSGGTAALGCLVKDYFPEPVTVSWNSGALTSGVHTFPAVLQSSGLYSLSSVVTVPSSSLGTQTYICNVNHKPSNTKVDKKVEPKSCDKTHTCPPCPAPELLGGPSVFLFPPKPKDTLMISRTPEVTCVVVDVSHEEPEVKFNWYVDGVEVHNAKTKPREEQYNSTYRVVSVLTVLHQDWLNGKEYKCKVSNDALPKPIEETISKAKGQPREPQVYTLPPSRCELTKNQVSLSCAVKGFYPSDIAVEWESNGQPENNYKTTPPVLDSDGSFFLVSKLTVDKSRWQQGNVFSCSVMHEALHNHYTQKSLSLSP
light: B1 light
notes: Anti-EREG IgG1 called homodimerized: both H chains carry D270E/K326D/A330K/K334E; also called H240-Kn133/H240-HI068/L73-k0
Regarding B2, the Kd with FcgRIIa R came to 450 nM; with FcgRIIa H it was 160 nM; with FcgRIIIa F, 120 nM; with FcgRIIIa V it was 14 nM.
